Test results reported in US20220064300A1.

What was measured:
[1] = target: Murine FcγRIIB extracellular domain (mouse) (UniProt P08101); assay: SPR, dissociation constant from binding at equilibrium on immobilized murine FcγRIIB extracellular domain, 37 °C
[2] = target: Murine FcγRIIB extracellular domain (mouse) (UniProt P08101); assay: SPR, binding at equilibrium, antibody injected at 37 °C over murine FcγRIIB extracellular domain amine-coupled to a CM5 chip, reference channel mouse CD200

Sequence of UniProt P08101 (P08101 30-210): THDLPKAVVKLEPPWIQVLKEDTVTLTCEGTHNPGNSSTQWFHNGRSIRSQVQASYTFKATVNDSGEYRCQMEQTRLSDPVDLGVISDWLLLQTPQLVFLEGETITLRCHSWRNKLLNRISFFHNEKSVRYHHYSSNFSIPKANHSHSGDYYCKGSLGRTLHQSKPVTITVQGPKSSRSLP

Substance	Kd [1]	Kd [2]
JJ316 (anti-rat CD28 antibody, superagonistic; BD Biosciences cat #554992)	3.02 µM	3.02 µM
JJ316+50 (JJ316 extended in the hinge with a 50 amino acid insertion from murine CD43) (antibody)	1.07 µM	1.07 µM
chimeric Nivolumab in an extended form containing the 50-residue extension (antibody)	8.51 µM	8.51 µM
